Results on 94 variants are retold here after the supplement of paper PMC10567573.

B1: PTPRD (parent)
chain: FICQATGDPRPKIVWNKKGKKVSN
B2: KRT13 (parent)
chain: TPGIDLTRVLAEMREQYEAMAERN
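Also: lentivirally expressed fusions sorted by FACS into six bins by GFP to DsRed ratio, PSI derived from sequencing read proportions per bin multiplied by bin number.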

The variants in the first series derive from B1. Kind of series: protein stability index of a GFP-peptide fusion (GPS, HEK-293T) (PSI 1-6); higher = more stable. The settings on record: c terminus: a fixed tail appended.
Regarding FACQATGDPRPKIVWNKKGKKVSN [I2A], the protein stability index is 2.67.
The same measure, in the same setting: the value for FICQACGDPRPKIVWNKKGKKVSN [T6C] was 2.81; that for FICQAFGDPRPKIVWNKKGKKVSN [T6F] was 1.68; that for FICQAHGDPRPKIVWNKKGKKVSN [T6H] was 1.68.
Same read-out and setting: the same measure for FICQALGDPRPKIVWNKKGKKVSN [T6L]: 1.47; for FICQADGDPRPKIVWNKKGKKVSN [T6D]: 1.71; for FICQAAGDPRPKIVWNKKGKKVSN [T6A]: 1.92.
Still for that read-out and setting: the same measure for FICQAIGDPRPKIVWNKKGKKVSN [T6I]: 1.61; for FICQANGDPRPKIVWNKKGKKVSN [T6N]: 1.78.
In the case of FICQAPGDPRPKIVWNKKGKKVSN [T6P], the protein stability index worked out at 1.96.
The same measure, in the same setting: the same measure for FICQAKGDPRPKIVWNKKGKKVSN [T6K]: 2.02; for FICQAMGDPRPKIVWNKKGKKVSN [T6M]: 1.65.
Regarding FICQAEGDPRPKIVWNKKGKKVSN [T6E], the protein stability index turned out to be 2.05.
Same read-out and setting: the same measure for FICQAGGDPRPKIVWNKKGKKVSN [T6G]: 2.18.

The variants in another series derive from B2. Described as above. Particulars: c terminus: a fixed tail appended.
For TPGIDLTRVLAEMREQYEAMAERT [N24T], the protein stability index was determined as 4.22.
On the same count and under the same terms, the same measure for TPGIDLTRVLAEMREQYEAMAERH [N24H]: 4.79; for TPGIDLTRVLAEMREQYEAMAERA [N24A]: 3.56; for TPGIDLTRVLAEMREQYEAMAERY [N24Y]: 3.8.
On the same count and under the same terms, the value for TPGIDLTRVLAEMREQYEAMAERW [N24W] was 4.55.
Still for that read-out and setting: the value for TPGIDLTRVLAEMREQYEAMAERD [N24D] was 5.03; that for TPGIDLTRVLAEMREQYEAMAERG [N24G] was 4.87; that for TPGIDLTRVLAEMREQYEAMAERS [N24S] was 4.51.
TPGIDLTRVLAEMREQYEAMAERF [N24F]: the protein stability index was found to be 4.
Same read-out and setting: the same measure for TPGIDLTRVLAEMREQYEAMAERE [N24E]: 4.51.
In the case of TPGIDLTRVLAEMREQYEAMAERK [N24K], the protein stability index came to 3.27.
Still for that read-out and setting: the same measure for TPGIDLTRVLAEMREQYEAMAERI [N24I]: 4.63; for TPGIDLTRVLAEMREQYEAMAERL [N24L]: 4.83; for TPGIDLTRVLAEMREQYEAMAERQ [N24Q]: 4.23.
On the same count and under the same terms, the value for TPGIDLTRVLAEMREQYEAMAERP [N24P] was 4.07; that for TPGIDLTRVLAEMREQYEAMAERM [N24M] was 4.67; that for TPGIDLTRVLAEMREQYEAMAERC [N24C] was 3.08.
Still for that read-out and setting: the value for TPGIDLTRVLAEMREQYEAQAERN [M20Q] was 4.13; that for TPGIDLTRVLAEMREQYEAKAERN [M20K] was 4.81; that for TPGIDLTRVLAEMREQYEATAERN [M20T] was 4.25.
As for TPGIDLTRVLAEMREQYEAWAERN [M20W], the protein stability index stood at 5.32.
On to TPGIDLTRVLAEMREQYEANAERN [M20N], for which the protein stability index stood at 3.18.
On the same count and under the same terms, the value for TPGIDLTRVLAEMREQYEAPAERN [M20P] was 4.81; that for TPGIDLTRVLAEMREQYEAHAERN [M20H] was 4.32; that for TPGIDLTRVLAEMREQYEARAERN [M20R] was 4.68.
The same measure, in the same setting: the same measure for TPGIDLTRVLAEMREQYEALAERN [M20L]: 3.74; for TPGIDLTRVLAEMREQYEAIAERN [M20I]: 3.88.
Same read-out and setting: the same measure for TPGIDLTRVLAEMREQYEAVAERN [M20V]: 3.09.
With TPGIDLTRVLAEMREQYEAYAERN [M20Y], the protein stability index came to 4.62.
The same measure, in the same setting: the same measure for TPGIDLTRVLAEMREQYEAMAGRN [E22G]: 4.02; for TPGIDLTRVLAEMREQYEAMASRN [E22S]: 3.52; for TPGIDLTRVLAEMREQYEAMAPRN [E22P]: 3.98.
On the same count and under the same terms, the same measure for TPGIDLTRVLAEMREQYEAMAVRN [E22V]: 2.56.
On the same count and under the same terms, the value for TPGIDLTRVLAEMREQYEAMADRN [E22D] was 4.66; that for TPGIDLTRVLAEMREQYEAMAKRN [E22K] was 4.39; that for TPGIDLTRVLAEMREQYEAMAARN [E22A] was 4.08.
Regarding TPGIDLTRVLAEMREQYEAMAMRN [E22M], the protein stability index stood at 4.03.
Take TPGIDLTRVLAEMREQYEAMALRN [E22L]: the protein stability index came out at 4.4.
For TPGIDLTRVLAEMREQYEAMATRN [E22T], the protein stability index was 3.87.
Still for that read-out and setting: the value for TPGIDLTRVLAEMREQYEAMANRN [E22N] was 4.04; that for TPGIDLTRVLAEMREQYEAMACRN [E22C] was 3.7.
Still for that read-out and setting: the same measure for TPGIDLTRVLAEMREQYEAMAFRN [E22F]: 2.98; for TPGIDLTRVLAEMREQYEAMAIRN [E22I]: 2.79; for TPGIDLTRVLAEMREQYEAMAWRN [E22W]: 2.86.
Still for that read-out and setting: the value for TPGIDLTRVLAEMREQYEAMAYRN [E22Y] was 3; that for TPGIDLTRVLAEMREQYEAMAHRN [E22H] was 3.73.
As for TPGIDLTRVLAEMREQYEAMAECN [R23C], the protein stability index amounted to 4.43.
Still for that read-out and setting: the same measure for TPGIDLTRVLAEMREQYEAMAEYN [R23Y]: 3.61; for TPGIDLTRVLAEMREQYEAMAEKN [R23K]: 4.03; for TPGIDLTRVLAEMREQYEAMAESN [R23S]: 4.56.
On the same count and under the same terms, the same measure for TPGIDLTRVLAEMREQYEAMAEAN [R23A]: 3.9; for TPGIDLTRVLAEMREQYEAMAEWN [R23W]: 2.83; for TPGIDLTRVLAEMREQYEAMAEVN [R23V]: 3.01.
On the same count and under the same terms, the value for TPGIDLTRVLAEMREQYEAMAENN [R23N] was 4.59; that for TPGIDLTRVLAEMREQYEAMAEGN [R23G] was 3.98; that for TPGIDLTRVLAEMREQYEAMAEHN [R23H] was 4.21.
As for TPGIDLTRVLAEMREQYEAMAEIN [R23I], the protein stability index was found to be 2.94.
In the case of TPGIDLTRVLAEMREQYEAMAEDN [R23D], the protein stability index was 4.84.
Same read-out and setting: the value for TPGIDLTRVLAEMREQYEAMAETN [R23T] was 4.08; that for TPGIDLTRVLAEMREQYEAMAEPN [R23P] was 4.62; that for TPGIDLTRVLAEMREQYEAMAELN [R23L] was 3.34.
The same measure, in the same setting: the value for TPGIDLTRVLAEMREQYEAMAEEN [R23E] was 4.9; that for TPGIDLTRVLAEMREQYEAMAEMN [R23M] was 3.27.
The same measure, in the same setting: the same measure for TPGIDLTRVLAEMREQYEAMAEFN [R23F]: 3.78; for TPGIDLTRVLAEMREQYEAMAEQN [R23Q]: 4.39; for TPGIDLTRVLAEMREQYEAMSERN [A21S]: 4.65.
TPGIDLTRVLAEMREQYEAMGERN [A21G]: the protein stability index amounted to 2.79.
On the same count and under the same terms, the same measure for TPGIDLTRVLAEMREQYEAMHERN [A21H]: 4.07; for TPGIDLTRVLAEMREQYEAMCERN [A21C]: 4.29.
The same measure, in the same setting: the same measure for TPGIDLTRVLAEMREQYEAMFERN [A21F]: 3.98.
The same measure, in the same setting: the same measure for TPGIDLTRVLAEMREQYEAMDERN [A21D]: 4.91; for TPGIDLTRVLAEMREQYEAMKERN [A21K]: 3.94.
As for TPGIDLTRVLAEMREQYEAMLERN [A21L], the protein stability index came to 4.39.
As to TPGIDLTRVLAEMREQYEAMQERN [A21Q], the protein stability index turned out to be 4.54.
In the case of TPGIDLTRVLAEMREQYEAMRERN [A21R], the protein stability index was found to be 4.18.
Same read-out and setting: the same measure for TPGIDLTRVLAEMREQYEAMPERN [A21P]: 4.93; for TPGIDLTRVLAEMREQYEAMYERN [A21Y]: 4.5; for TPGIDLTRVLAEMREQYEAMMERN [A21M]: 4.09.
Still for that read-out and setting: the value for TPGIDLTRVLAEMREQYEAMVERN [A21V] was 3.55; that for TPGIDLTRVLAEMREQYEAMIERN [A21I] was 4.27.
